These results are taken from the supplement of paper PMC12042874.

± gives the uncertainty stated by the source.

The nature of this series: amyloid nucleation score (Sup35N fusion, yeast selection) (log enrichment); library NNK3; higher = more nucleation; inactive = no reads after selection. In outline:
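Sup35N was fused to peptides of 20 random codons and expressed in psi-negative yeast, which were induced with 100 μM copper sulfate for 24 hours and then grown on medium lacking adenine and uracil for 7 days at 30°C. Plasmid inserts from input and output were sequenced on Illumina. The nucleation score is the DiMSum log enrichment of output over input reads, centred on the mode score of non-aggregating sequences. Sequences with under 100 input reads were left out, and random libraries had three technical output replicates.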
Turning to YSAVSTSVMCAE, the amyloid nucleation score entry was “inactive”.
As to MGQRLLLVSANAWD, the amyloid nucleation score entry is “inactive”.
As for LHVSWGGLSGDTLFTRKVGV, the amyloid nucleation score result was “inactive”.
With FWTVHLVT the entry was “inactive”.
The entry for LQYNISVWELC is “inactive”.
Regarding ASSRSHPV, the amyloid nucleation score result was “inactive”.
On to QSYVRQF, for which the amyloid nucleation score entry was “inactive”.
With LSNPTSRVLSYRTNM the entry was “inactive”; with FCMRMDRLQLRIADSLLRFF, “inactive”.
For ILNRLCRDLYVAFTSSAACR, the amyloid nucleation score entry is “inactive”.
On to SDYENTRTNDNDHICVLSVG, for which the amyloid nucleation score result was “inactive”.
In the case of QTRELRSQLLMPFSITDVRS, the amyloid nucleation score result is “inactive”.
The entry for WDSWESYFASHHSF is “inactive”; for FLTSVGIAYAKFRLGYSCLL it is “inactive”; for GCIYK it is “inactive”.
As to SFNGMSCLRNNLRWNFNRNA, the amyloid nucleation score entry is “inactive”.
SRRSLNGIN gave an amyloid nucleation score of -0.05 ± 0.3.
Consider VMYSGFRVILF, for which the amyloid nucleation score stood at 0.751 ± 0.15.
As for GWGIICFAKY, the amyloid nucleation score entry was “inactive”.
Take LCRSGIFKSYWNITMFFKFL: the amyloid nucleation score result is “inactive”.
With SGLSSRNSYTFVSKRVVGVR the entry was “inactive”; with LYDLNLSDLMNCRYTIRGWF, “inactive”; with LWKFSILAYRRFILFKLQMN, “inactive”.
With SSFDSAIEA, the amyloid nucleation score entry was “inactive”.
Regarding VMQYLLMAEKNQLRLQRFAR, the amyloid nucleation score result was “inactive”.
As to FMYMVNMVNVTVN, the amyloid nucleation score result is “inactive”.
On to VFNGFVLKVEQVSIGVC, for which the amyloid nucleation score entry was “inactive”.
The figure for QLGLIVRNSCLSSIVVKGML is -0.06 ± 0.54; for SRLNFVLVSMQD it is “inactive”; for CLFGHGY it is “inactive”.
With WLRLSL the entry was “inactive”; with YCTWAYRVYSYSGCTMMIVL, “inactive”; with FNFVYV, 0.062 ± 0.88.
As for LLESTSF, the amyloid nucleation score result is “inactive”.
Regarding MSHCYYEFARVPKWHERCPS, the amyloid nucleation score result is “inactive”.
With NVWSVVFVSCLIIYGCPKWM the figure was 1.31 ± 0.087; with VGLNVSWAYIMVAEYVVYMS, -0.698 ± 0.53.
With TQDIKLFHRMDFQLSIKMNS, the amyloid nucleation score result was “inactive”.
RNMLVAPDSCMASRWYGVHL: the amyloid nucleation score entry is “inactive”.
In turn, FNDNVFIGRYVRTSYCLNLR displayed an amyloid nucleation score of 1.72 ± 0.064.
Substance PTELIACVAIYNVDYLYWIH gave an amyloid nucleation score of 2 ± 0.082.
With GVNVWRYLCH, the amyloid nucleation score result was “inactive”.
As to LSKVVLLVFKGTP, the amyloid nucleation score result was “inactive”.
In the case of NLKKARSTSFIDEPECRPRP, the amyloid nucleation score was -0.406 ± 1.1.
RDVWDYSREHLYNDDFLIGA came in with an amyloid nucleation score of -0.422 ± 0.75.
Take VRMCVIVQVKVCARDMTVST: the amyloid nucleation score entry was “inactive”.
As for DSVKSALRRGI, the amyloid nucleation score is -0.166 ± 0.9.
Regarding MSQKEGFSDTGLLLRRSTRS, the amyloid nucleation score result is “inactive”.
Consider ILCGESTR, for which the amyloid nucleation score entry is “inactive”.
For the substance KLAKHH, the amyloid nucleation score entry is “inactive”.
In turn, LQVSIRLTLTNHVDRHTMPM yielded an amyloid nucleation score of 1.36 ± 0.15.
On to VSDKHVYCMEGCMP, for which the amyloid nucleation score result was “inactive”.
Regarding GFVMMFNR, the amyloid nucleation score result is “inactive”.
For the substance TFYDNLSDRLFSWS, the amyloid nucleation score result was “inactive”.
CMVCYLLPGSVSTCSCVRGI returned an amyloid nucleation score of 2.75 ± 0.064.
For the substance RWFRLSWLEISKYA, the amyloid nucleation score entry was “inactive”.
Take AEYKNGTLRRRTRRVKSRRI: the amyloid nucleation score result is “inactive”.
VFAFGNIGLVRWFVI: the amyloid nucleation score result is “inactive”.
ILSTIVMFLVPSYHLFWLWA: the amyloid nucleation score entry is “inactive”.
Turning to DRYCLWVRCLVDAFMRPVVG, the amyloid nucleation score result was “inactive”.
For the substance SCSGW, the amyloid nucleation score is -0.351 ± 1.1.
Turning to FMVLRYCVILWGFWEYMSSA, the amyloid nucleation score entry was “inactive”.
YYCMFVGD yielded an amyloid nucleation score of 1.24 ± 0.15.
With HMTGARRN, the amyloid nucleation score result is “inactive”.
For KGQYLSIGYNNFRG, the amyloid nucleation score is -0.764 ± 1.8.
Turning to FRGCYRFELLSDTCISRELV, the amyloid nucleation score entry is “inactive”.
With LSWSGNSSAYKSIIR the entry was “inactive”; with PDNGLRAIMTAGPVFSRQSN, “inactive”; with IRNSVLWGHFIR, “inactive”.
Substance LWEDNVWVLKR came in with an amyloid nucleation score of -0.1 ± 0.19.
Take QLFVRVIWDMP: the amyloid nucleation score turned out to be 0.186 ± 0.45.
With SLVLNSMMRTTNKNGNEGYV, the amyloid nucleation score entry was “inactive”.
The entry for LSDFL is “inactive”.
On to SYWLCEVMTLYFFNCFYVLG, for which the amyloid nucleation score result was “inactive”.
GKPWCNYSDYFYCTLLVDCK displayed an amyloid nucleation score of -0.246 ± 0.82.
The entry for SKHYN is “inactive”.
The entry for FKVLSFKSENSSYYVPFGLD is “inactive”; for HFCSGSINMMNFLSKDYKMQ it is 2.39 ± 0.063.
In the case of YFGSV, the amyloid nucleation score result was “inactive”.
MKLINRDFSL: the amyloid nucleation score entry was “inactive”.
On to SHRNTKKFMEWIFLYFIPTM, for which the amyloid nucleation score is 0.064 ± 0.62.
With YLGFFTAYA, the amyloid nucleation score result is “inactive”.
TKIEVNS: the amyloid nucleation score entry was “inactive”.
As for TSYSKEVFQLLKWVGNLIRG, the amyloid nucleation score result was “inactive”.
For SFDFHRVMIPRDRPDYHPSM, the amyloid nucleation score result is “inactive”.
On to SIFCFDYWQDIGTFMPSAVK, for which the amyloid nucleation score result was “inactive”.
On to WINGTISDC, for which the amyloid nucleation score result was “inactive”.
The figure for LMNTYL is 1.71 ± 0.099; for FCYLPRALCEVLNRCLLNSL it is “inactive”.
Regarding RFYKRICLLYPTRSEGESGF, the amyloid nucleation score entry was “inactive”.
As for YVLKLSRYMPN, the amyloid nucleation score entry is “inactive”.
With KDTRIQLVNNFICGDSLE the entry was “inactive”.
For the substance NSFDNFFSLNLNTGAYY, the amyloid nucleation score entry was “inactive”.
Regarding KERIQCYMRLPRFIN, the amyloid nucleation score entry was “inactive”.
For the substance YCYRYGWYHMNEDRIWDVRL, the amyloid nucleation score result was “inactive”.
With FVEAANNSFCYESSNIT, the amyloid nucleation score result is “inactive”.
In the case of KNMWTGSFDVFRRWPISLKG, the amyloid nucleation score entry is “inactive”.
With RLYKKGRGPFHLTPAPRD the entry was “inactive”.
With FFGPLPRTAIYQHILCTRNG the figure was 0.665 ± 0.14.
For RVCRVAPLPAVKGLGVSQNS, the amyloid nucleation score entry is “inactive”.
The entry for FFHSIPKFFRAQKMCTYVPP is “inactive”; for TTELVF it is “inactive”; for HLAHLSRSLSVKSSSVMKGH it is “inactive”.
As for LVAGSTRTSLLVLRALGAWL, the amyloid nucleation score entry was “inactive”.
DVANKIVSKGRS: the amyloid nucleation score entry is “inactive”.
For the substance VASTVSRVAKDTKAKVAYR, the amyloid nucleation score result was “inactive”.
For the substance YLRDF, the amyloid nucleation score result was “inactive”.
As to HGQFMWLMYYMNILSFLLGF, the amyloid nucleation score result is “inactive”.
The entry for KGFSFLRIRRMGLWTVSGYG is “inactive”.
The entry for SYGALLNGYGGKSSAPIRWS is “inactive”.
The figure for CCVSVKYWYYV is 2.18 ± 0.058; for SAWHIRVERIGVMYRVHCYD it is 0.747 ± 0.18; for SCRLLNFIICIGWVWGFDVS it is “inactive”.
For KYLLLKRNARQRLHTVCHQA, the amyloid nucleation score entry is “inactive”.
In the case of TDRLGCSFELCAPTCKCAGV, the amyloid nucleation score entry is “inactive”.
For the substance VNYDSLPVLRPGSEGGVLFN, the amyloid nucleation score result is “inactive”.
The entry for YVKPDDDAQVKVGWGQFSVG is “inactive”; for VRFYVAYFILFSDATAMALK it is “inactive”.
The entry for GHWSEKSDGTNKSYVVRSGM is “inactive”; for NYAYPIPIRLLIEAWRMGTA it is “inactive”.
The substance LIGCVLGSLFLRDIFIYCLM displayed an amyloid nucleation score of 0.409 ± 0.67.
The entry for CRVPSLVIC is “inactive”.
Regarding HSWFFGFIFWLLNDHSIHYG, the amyloid nucleation score result is “inactive”.
With GFFLLNSYSNCMFCKLHTGT the figure was 1.97 ± 0.082.
Take VIRLLVIAFRDHLNEVMFHK: the amyloid nucleation score entry was “inactive”.
In the case of NLDIFGNKMLMGRRGMLNMS, the amyloid nucleation score entry was “inactive”.
Consider MGVVNFVITGNSYCAKVMLY, for which the amyloid nucleation score result was “inactive”.
The entry for DCIYRDVCFNFTYMCKVNAQ is “inactive”; for RCICTRFLVPWDSIA it is “inactive”; for LVSCK it is “inactive”.
MSTMVYRASRCGRLG gave an amyloid nucleation score of 0.399 ± 0.53.
The figure for DGLIECWDFNRIMGLNKQNK is -1.33 ± 1.9; for LDMQEPPVNAVRHYLSL it is “inactive”.
